Measurements taken from patent US20260265373A1.

Key:
[1] = target: full-length human ILT7 on cells (human) (UniProt P59901); assay: competitive FACS on CHOK1 cells expressing human ILT7; competitor Tab1-Alexa488; negative control that sets the reference signal
[2] = target: full-length human ILT7 on cells (human) (UniProt P59901); assay: competitive FACS on CHOK1 cells expressing human ILT7; competitor Tab1-Alexa488; negative control, reference of the calculation
[3] = target: full-length human ILT7 on cells (human) (UniProt P59901); assay: flow cytometry of human PBMCs, gate on pDCs (CD11c low, HLA-DR+, CD123+)

full-length human ILT7 on cells (human), sequence (P59901 other isoform, or with tags, fused parts or gaps): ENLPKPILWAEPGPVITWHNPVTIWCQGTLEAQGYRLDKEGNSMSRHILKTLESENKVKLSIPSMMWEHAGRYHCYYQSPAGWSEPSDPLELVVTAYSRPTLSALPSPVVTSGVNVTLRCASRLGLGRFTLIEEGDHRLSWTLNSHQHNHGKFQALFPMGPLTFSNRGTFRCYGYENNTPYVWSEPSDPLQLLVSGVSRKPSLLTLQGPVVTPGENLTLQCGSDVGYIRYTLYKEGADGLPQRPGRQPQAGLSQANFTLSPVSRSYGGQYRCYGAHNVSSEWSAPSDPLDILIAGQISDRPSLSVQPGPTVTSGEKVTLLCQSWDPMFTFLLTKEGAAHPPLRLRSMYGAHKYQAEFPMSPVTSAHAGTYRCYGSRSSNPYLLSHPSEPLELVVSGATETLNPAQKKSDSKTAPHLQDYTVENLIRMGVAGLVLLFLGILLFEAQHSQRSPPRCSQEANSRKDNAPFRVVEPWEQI

Which MFI of Tab1-Alexa488 [1] does the source give for “isotype antibody hIgG1 (negative control)” here?
The MFI of Tab1-Alexa488 was 9670.

What about the Inhibition (%) [2] of the same substance?
The Inhibition (%) was 0%.

What about the % targeted cells in subpopulation (pDC) [3] of the same substance?
The % targeted cells in subpopulation (pDC) was 2.2%.
